One substance from PMC8563995, “CCA-addition in the cold: Structural characterization of the psychrophilic CCA-adding enzyme from the permafrost bacterium Planococcus halocryophilus” (Computational and Structural Biotechnology Journal, 2021) can be followed below.

As a reminder, the Kd is a measure of binding affinity in units of concentration. Lower therefore signals higher affinity.

This data set concerns GstCCA (CCA-adding enzyme, tRNA nucleotidyltransferase) (Geobacillus stearothermophilus). Briefly: EMSA. The conditions noted are these: 10 mM MgCl2; 37 °C; EMSA: 50 mM glycine/NaOH pH 8.5, 10 mM MgCl2, 2 mM DTT, 0.3 pmol tRNA, 0-5 µM enzyme, 10 min at 37 °C (GstCCA) or 4 °C and 30 °C (PhaCCA); 5% native PAGE at …. In general terms: In EMSA bound probe runs differently from free probe, usually more slowly.

Consider yeast tRNAPhe lacking the CCA terminus, for which the Kd was 1300 nM.
